# Data: publication PMC4921775, “Transient Fcho1/2⋅Eps15/R⋅AP-2 Nanoclusters Prime the AP-2 Clathrin Adaptor for Cargo Binding” (Developmental Cell, 2016)
# No end group written: not given here.
# T1: FCHO1 μHD (purified, not on beads) (human, UniProt O14526 609-889)
# T1 construct: human FCHO1 μ-homology domain (μHD); also called purified FCHO1 μHD; Hs FCHO1 μHD; source: purified
# T1 sequence (looked up): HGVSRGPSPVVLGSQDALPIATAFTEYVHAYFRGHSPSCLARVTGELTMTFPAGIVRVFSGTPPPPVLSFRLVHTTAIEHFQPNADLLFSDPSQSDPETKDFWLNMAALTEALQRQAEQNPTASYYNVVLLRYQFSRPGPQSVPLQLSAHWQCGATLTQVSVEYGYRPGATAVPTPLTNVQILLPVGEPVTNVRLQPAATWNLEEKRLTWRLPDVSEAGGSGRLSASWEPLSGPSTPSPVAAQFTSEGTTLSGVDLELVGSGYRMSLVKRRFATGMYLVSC
# T2: FCHO1 μHD R872A+S874G (Homo sapiens)
# T2 chain: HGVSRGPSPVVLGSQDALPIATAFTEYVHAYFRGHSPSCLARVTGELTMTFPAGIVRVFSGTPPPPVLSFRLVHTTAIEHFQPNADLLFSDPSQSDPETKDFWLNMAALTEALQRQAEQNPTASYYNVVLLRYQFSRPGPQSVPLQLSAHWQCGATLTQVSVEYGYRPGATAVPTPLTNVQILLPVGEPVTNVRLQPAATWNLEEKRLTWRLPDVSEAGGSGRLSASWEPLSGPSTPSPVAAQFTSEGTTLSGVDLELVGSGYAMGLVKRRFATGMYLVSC
# T3: FCHO1 μHD S732D (Homo sapiens)
# T3 chain: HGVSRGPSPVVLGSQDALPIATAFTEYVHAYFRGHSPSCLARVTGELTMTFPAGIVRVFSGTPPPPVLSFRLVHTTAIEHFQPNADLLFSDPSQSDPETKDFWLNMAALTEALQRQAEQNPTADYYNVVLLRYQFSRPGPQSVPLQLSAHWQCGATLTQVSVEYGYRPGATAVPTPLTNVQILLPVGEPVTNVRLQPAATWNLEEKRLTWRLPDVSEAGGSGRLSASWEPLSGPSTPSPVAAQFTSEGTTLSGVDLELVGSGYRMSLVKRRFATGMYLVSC
# T4: FCHO1 μHD R872M (Homo sapiens)
# T4 chain: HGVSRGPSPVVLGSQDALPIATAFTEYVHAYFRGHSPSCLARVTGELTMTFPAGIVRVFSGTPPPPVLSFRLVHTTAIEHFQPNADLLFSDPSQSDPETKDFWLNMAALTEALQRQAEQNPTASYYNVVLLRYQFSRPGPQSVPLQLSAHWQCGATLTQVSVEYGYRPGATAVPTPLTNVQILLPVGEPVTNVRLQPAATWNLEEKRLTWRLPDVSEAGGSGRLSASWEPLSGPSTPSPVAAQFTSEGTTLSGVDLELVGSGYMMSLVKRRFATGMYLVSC
# T5: Danio rerio (Dr) Fcho1 μHD (Danio rerio (zebrafish))
# T5 chain: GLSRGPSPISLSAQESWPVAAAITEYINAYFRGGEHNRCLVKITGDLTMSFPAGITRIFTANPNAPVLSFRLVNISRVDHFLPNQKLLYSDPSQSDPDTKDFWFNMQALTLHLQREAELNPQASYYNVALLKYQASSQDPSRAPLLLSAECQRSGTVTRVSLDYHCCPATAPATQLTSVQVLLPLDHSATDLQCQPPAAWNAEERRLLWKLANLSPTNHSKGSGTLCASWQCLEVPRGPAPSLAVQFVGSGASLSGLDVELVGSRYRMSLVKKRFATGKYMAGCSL
# T6: GST-FCHO1 μHD K877E + R879A (human, UniProt O14526 609-889, K877E | R879A)
# T6 construct: also called K877E + R879A mutant; source: GST-fusion protein immobilised on glutathione-Sepharose; not shown: GST, N-terminal, kept
# T6 sequence (looked up): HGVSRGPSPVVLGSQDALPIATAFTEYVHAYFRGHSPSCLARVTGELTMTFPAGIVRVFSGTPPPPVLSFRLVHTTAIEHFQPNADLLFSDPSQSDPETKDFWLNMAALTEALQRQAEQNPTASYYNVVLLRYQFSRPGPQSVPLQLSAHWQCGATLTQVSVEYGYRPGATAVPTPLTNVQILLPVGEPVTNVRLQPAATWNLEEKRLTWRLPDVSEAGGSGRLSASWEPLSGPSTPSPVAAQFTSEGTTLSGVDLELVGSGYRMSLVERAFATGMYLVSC
# T7: FCHO1 μHD K877E + R879A (for ITC) (human, UniProt O14526 609-889, K877E | R879A)
# T7 sequence (looked up): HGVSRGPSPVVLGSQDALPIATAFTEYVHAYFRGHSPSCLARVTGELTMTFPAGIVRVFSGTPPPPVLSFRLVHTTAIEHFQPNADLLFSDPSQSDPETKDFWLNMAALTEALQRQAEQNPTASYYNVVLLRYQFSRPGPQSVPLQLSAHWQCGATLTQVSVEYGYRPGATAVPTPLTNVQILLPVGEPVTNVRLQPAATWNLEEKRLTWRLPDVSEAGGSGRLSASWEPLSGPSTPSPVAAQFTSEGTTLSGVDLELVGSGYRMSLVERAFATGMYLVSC
# T8: FCHO1 μHD A629E (for ITC) (human, UniProt O14526 609-889, A629E)
# T8 sequence (looked up): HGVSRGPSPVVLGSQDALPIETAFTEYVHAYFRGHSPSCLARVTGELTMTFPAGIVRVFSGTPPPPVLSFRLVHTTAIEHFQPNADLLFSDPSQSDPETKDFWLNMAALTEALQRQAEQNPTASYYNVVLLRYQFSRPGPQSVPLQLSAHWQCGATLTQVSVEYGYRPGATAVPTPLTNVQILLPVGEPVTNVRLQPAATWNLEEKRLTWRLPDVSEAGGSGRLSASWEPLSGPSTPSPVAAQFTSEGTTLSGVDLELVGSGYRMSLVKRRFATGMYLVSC
# T9: FCHO1 μHD P627D + A629E (for ITC) (human, UniProt O14526 609-889, P627D | A629E)
# T9 sequence (looked up): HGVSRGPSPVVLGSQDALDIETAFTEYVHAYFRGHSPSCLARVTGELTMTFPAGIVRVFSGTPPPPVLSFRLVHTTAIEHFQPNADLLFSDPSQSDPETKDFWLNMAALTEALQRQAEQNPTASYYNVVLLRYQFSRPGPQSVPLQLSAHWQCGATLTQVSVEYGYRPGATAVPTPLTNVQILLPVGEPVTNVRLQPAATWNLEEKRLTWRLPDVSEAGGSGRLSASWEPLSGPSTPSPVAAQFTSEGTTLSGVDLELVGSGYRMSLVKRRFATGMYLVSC
# Experiments:
# [1] = target: AP-2 α-appendage appendage (UniProt P17426); conditions: cited from earlier work
# [2] = target: T1, FCHO1 μHD (purified, not on beads); experiment: pull-down; purified FCHO1 μHD with ~50 μg of GST or GST fusion protein in the presence of carrier BSA; stained or immunoblotted with an anti-FCHO1 monoclonal antibody; Figure 1D; conditions: both partners purified
# FCHO1 μHD R872A+S874G = target: T2, FCHO1 μHD R872A+S874G; experiment: ITC
# FCHO1 μHD S732D = target: T3, FCHO1 μHD S732D; experiment: ITC
# FCHO1 μHD R872M = target: T4, FCHO1 μHD R872M; experiment: ITC
# [3] = target: T5, Danio rerio (Dr) Fcho1 μHD; experiment: ITC
# [4] = target: T6, GST-FCHO1 μHD K877E + R879A; experiment: pull-down; HeLa cell lysate with 250 μg (Figure 3F: the indicated amount) of GST or GST-μHD fusion proteins immobilised on glutathione-Sepharose; supernatant and pellet stained or immunoblotted; Figures 1G, 3E, 3F; conditions: one partner purified
# [5] = target: T1, FCHO1 μHD (purified, not on beads); experiment: ITC; repeated injection of EPS15 peptides into a temperature-controlled solution of μHD, Nano ITC instrument (TA Instruments); minimum of four runs; conditions: both partners purified
# [6] = target: T7, FCHO1 μHD K877E + R879A (for ITC); experiment: as above; conditions: both partners purified
# [7] = target: T8, FCHO1 μHD A629E (for ITC); experiment: as above; conditions: both partners purified
# [8] = target: T9, FCHO1 μHD P627D + A629E (for ITC); experiment: as above; conditions: both partners purified
# Chain of AP-2 α-appendage appendage (P17426 740-977): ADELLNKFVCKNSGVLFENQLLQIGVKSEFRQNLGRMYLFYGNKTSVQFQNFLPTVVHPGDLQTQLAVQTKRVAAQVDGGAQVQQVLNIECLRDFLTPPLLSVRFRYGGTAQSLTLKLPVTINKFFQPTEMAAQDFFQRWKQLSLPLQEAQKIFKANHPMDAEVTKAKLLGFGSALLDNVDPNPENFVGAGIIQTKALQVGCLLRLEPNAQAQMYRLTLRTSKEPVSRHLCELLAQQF
molecule,measurement,setting,value
Eps15 DPF motif (from UniProt P42566),Kd,[1],200 µM
"{GST}-TNLDFFQSDPFVGSDPFKDDPF (source: GST-fusion protein immobilised on glutathione-Sepharose; not shown: GST, N-terminal, kept) [GST-EPS15 (615–636)]",binding result,[2],binds
"NLDFFQSDPFVGSDPFKDDPFGK [EPS15 616–638 peptide, listing 1 of 2 here]",Kd,FCHO1 μHD R872A+S874G,77.4 µM
"NLDFFQSDPFVGSDPFKDDPFGK [EPS15 616–638 peptide, listing 2 of 2 here]",Kd,FCHO1 μHD S732D,9.1 µM
same,Kd,FCHO1 μHD R872M,19.6 µM
same,Kd,[3],8.1 µM
"EPS15 (epidermal growth factor pathway substrate 15) (natural protein, human (endogenous in HeLa), UniProt P42566 1-896, looked up, human EPS15, endogenous protein; also called native EPS15 dimer/tetramer) MAAAAQLSLTQLSSGNPVYEKYYRQVDTGNTGRVLASDAAAFLKKSGLPDLILGKIWDLADTDGKGILNKQEFFVALRLVACAQNGLEVSLSSLNLAVPPPRFHDTSSPLLISGTSAAELPWAVKPEDKAKYDAIFDSLSPVNGFLSGDKVKPVLLNSKLPVDILGRVWELSDIDHDGMLDRDEFAVAMFLVYCALEKEPVPMSLPPALVPPSKRKTWVVSPAEKAKYDEIFLKTDKDMDGFVSGLEVREIFLKTGLPSTLLAHIWSLCDTKDCGKLSKDQFALAFHLISQKLIKGIDPPHVLTPEMIPPSDRASLQKNIIGSSPVADFSAIKELDTLNNEIVDLQREKNNVEQDLKEKEDTIKQRTSEVQDLQDEVQRENTNLQKLQAQKQQVQELLDELDEQKAQLEEQLKEVRKKCAEEAQLISSLKAELTSQESQISTYEEELAKAREELSRLQQETAELEESVESGKAQLEPLQQHLQDSQQEISSMQMKLMEMKDLENHNSQLNWCSSPHSILVNGATDYCSLSTSSSETANLNEHVEGQSNLESEPIHQESPARSSPELLPSGVTDENEVTTAVTEKVCSELDNNRHSKEEDPFNVDSSSLTGPVADTNLDFFQSDPFVGSDPFKDDPFGKIDPFGGDPFKGSDPFASDCFFRQSTDPFATSSTDPFSAANNSSITSVETLKHNDPFAPGGTVVAASDSATDPFASVFGNESFGGGFADFSTLSKVNNEDPFRSATSSSVSNVVITKNVFEETSVKSEDEPPALPPKIGTPTRPCPLPPGKRSINKLDSPDPFKLNDPFQPFPGNDSPKEKDPEIFCDPFTSATTTTNKEADPSNFANFSAYPSEEDMIEWAKRESEREEEQRLARLNQQEQEDLELAIALSKSEISEA",fold reduction of recovery against the wild-type μHD,[4],≥ 25 fold
"NLDFFQSDPFVGSDPFKDDPFGK (peptide, UniProt P42566 616-638, looked up)",Kd,[5],2.7 µM
same,Kd,[6],> 300 µM
same,Kd,[7],> 300 µM
same,Kd,[8],> 300 µM
